Measured values from patent US7759464.
Values belong to the binder of their own block, whether it stands above or below them.

Columns and labels:
[1] = biological target: monoclonal anti-idiotypic antibody MMA383; test: sandwich ELISA on wells coated with anti-idiotypic antibody MMA383, detected with anti-human IgG+A+M peroxidase
[2] = biological target: monoclonal anti-idiotypic antibody MMA383; test: sandwich ELISA on wells coated with anti-idiotypic antibody MMA383; evaluated at EC50, normalized on IGN311 wt.

Bottom (four parameter sigmoid fit) [1]: 96.1
EC50 [1]: 0.0638 µg/mL
Log EC50 [1]: 1.8 log(ng/ml)
Top (four parameter sigmoid fit) [1]: 2060
% (binding activity normalized on IGN311 wt.) [2]: 100%
B1: IGN311 wt. (antibody, V domains shown)
VH: EVQLLESGGGLVQPGGSLRLSCAASGFTFSDYYMYWVRQAPEKRLEWVAYISNGGGSSHYVDSVKGRFTISRDNSKNTLYLQMNSLRAEDTALYHCARGMDYGAWFAYWGQGTLVTVSS
VL: DIVMTQSPLSLPVTPGEPASISCRSSQSIVHSNGNTYLEWYLQKPGQSPQLLISKVSNRFSGVPDRFSGSGSGTDFTLKISRVEAEDVGVYYCFQGSHVPFTFGQGTKLEIK

Bottom (four parameter sigmoid fit) [1]: 77
EC50 [1]: 0.0688 µg/mL
Log EC50 [1]: 1.84 log(ng/ml)
Top (four parameter sigmoid fit) [1]: 2100
% (binding activity normalized on IGN311 wt.) [2]: 108%
B2: IGN312 Glyco I (antibody, V domains shown)
VH: B1 VH
VL: B1 VL
modifications: bi-sected hybrid type N-glycosylation pattern in the Fc region (constant part of the heavy chain, not in this VH piece)
